In US20230220589A1:

Tests used:
[1] = target: M44-modified A NTAA target peptides (M44-A-P2-peptide); assay: encoding assay; P2 A
[2] = target: M44-modified F NTAA target peptides (M44-F-P2-peptide); assay: encoding assay; P2 A
[3] = target: M44-modified G NTAA target peptides (M44-G-P2-peptide); assay: encoding assay; P2 A
[4] = target: M44-modified H NTAA target peptides; assay: encoding assay; P2 A
[5] = target: M44-modified I NTAA target peptides (M44-I-P2-peptide); assay: encoding assay; P2 A
[6] = target: M44-modified L NTAA target peptides (M44-L-P2-peptide); assay: encoding assay; P2 A
[7] = target: M44-modified M NTAA target peptides; assay: encoding assay; P2 A
[8] = target: M44-modified N NTAA target peptides; assay: encoding assay; P2 A
[9] = target: M44-modified Q NTAA target peptides; assay: encoding assay; P2 A
[10] = target: M44-modified V NTAA target peptides; assay: encoding assay; P2 A
[11] = target: M44-modified W NTAA target peptides; assay: encoding assay; P2 A
[12] = target: M44-modified Y NTAA target peptides (M44-Y-P2-peptide); assay: encoding assay; P2 A
[13] = target: M44-modified A NTAA target peptides (M44-A-P2-peptide); assay: encoding assay; P2 D
[14] = target: M44-modified F NTAA target peptides (M44-F-P2-peptide); assay: encoding assay; P2 D
[15] = target: M44-modified G NTAA target peptides (M44-G-P2-peptide); assay: encoding assay; P2 D
[16] = target: M44-modified I NTAA target peptides (M44-I-P2-peptide); assay: encoding assay; P2 D
[17] = target: M44-modified L NTAA target peptides (M44-L-P2-peptide); assay: encoding assay; P2 D
[18] = target: M44-modified M NTAA target peptides; assay: encoding assay; P2 D
[19] = target: M44-modified N NTAA target peptides; assay: encoding assay; P2 D
[20] = target: M44-modified Q NTAA target peptides; assay: encoding assay; P2 D
[21] = target: M44-modified W NTAA target peptides; assay: encoding assay; P2 D
[22] = target: M44-modified Y NTAA target peptides (M44-Y-P2-peptide); assay: encoding assay; P2 D
[23] = target: M44-modified A NTAA target peptides (M44-A-P2-peptide); assay: encoding assay; P2 F
[24] = target: M44-modified L NTAA target peptides (M44-L-P2-peptide); assay: encoding assay; P2 F
[25] = target: M44-modified E NTAA target peptides; assay: encoding assay; P2 G
[26] = target: M44-modified F NTAA target peptides (M44-F-P2-peptide); assay: encoding assay; P2 G
[27] = target: M44-modified I NTAA target peptides (M44-I-P2-peptide); assay: encoding assay; P2 G
[28] = target: M44-modified L NTAA target peptides (M44-L-P2-peptide); assay: encoding assay; P2 G
[29] = target: M44-modified M NTAA target peptides; assay: encoding assay; P2 G
[30] = target: M44-modified Q NTAA target peptides; assay: encoding assay; P2 G
[31] = target: M44-modified T NTAA target peptides; assay: encoding assay; P2 G
[32] = target: M44-modified V NTAA target peptides; assay: encoding assay; P2 G
[33] = target: M44-modified W NTAA target peptides; assay: encoding assay; P2 G
[34] = target: M44-modified Y NTAA target peptides (M44-Y-P2-peptide); assay: encoding assay; P2 G
[35] = target: M44-modified A NTAA target peptides (M44-A-P2-peptide); assay: encoding assay; P2 W
[36] = target: M44-modified D NTAA target peptides; assay: encoding assay; P2 W
[37] = target: M44-modified F NTAA target peptides (M44-F-P2-peptide); assay: encoding assay; P2 W
[38] = target: M44-modified G NTAA target peptides (M44-G-P2-peptide); assay: encoding assay; P2 W
[39] = target: M44-modified H NTAA target peptides; assay: encoding assay; P2 W
[40] = target: M44-modified I NTAA target peptides (M44-I-P2-peptide); assay: encoding assay; P2 W
[41] = target: M44-modified L NTAA target peptides (M44-L-P2-peptide); assay: encoding assay; P2 W
[42] = target: M44-modified M NTAA target peptides; assay: encoding assay; P2 W
[43] = target: M44-modified N NTAA target peptides; assay: encoding assay; P2 W
[44] = target: M44-modified P NTAA target peptides; assay: encoding assay; P2 W
[45] = target: M44-modified Q NTAA target peptides; assay: encoding assay; P2 W
[46] = target: M44-modified S NTAA target peptides; assay: encoding assay; P2 W
[47] = target: M44-modified T NTAA target peptides; assay: encoding assay; P2 W
[48] = target: M44-modified V NTAA target peptides; assay: encoding assay; P2 W
[49] = target: M44-modified W NTAA target peptides; assay: encoding assay; P2 W
[50] = target: M44-modified Y NTAA target peptides (M44-Y-P2-peptide); assay: encoding assay; P2 W
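Note: fraction of recording tags encoded.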

B1: engineered M44-A binder (SEQ ID NO: 42) (designed binder, not shown: small tags and cut ends; large carriers)
chain: QVSVQPNFQQDKFLGRWFVAGLASNSSWDREKVAALSGAKMVVAPATDGGLNVTRTMLRKNQCETYTGLLQPAGSLGSYSWRSPHPGSTGSESVVETDYDQYALVYGQGSKGPGEDLRAAALWSRTQTPRAELKEKFTAFSKAQGFTEDTIVFLPQTDKCMTEQ
[1]
  encoding yield: 0.11
[2]
  encoding yield: 0.06
[3]
  encoding yield: 0.04
[4]
  encoding yield: 0.01
[5]
  encoding yield: 0.05
[6]
  encoding yield: 0.04
[7]
  encoding yield: 0.03
[8]
  encoding yield: 0.02
[9]
  encoding yield: 0.03
[10]
  encoding yield: 0.03
[11]
  encoding yield: 0.03
[12]
  encoding yield: 0.03
[13]
  encoding yield: 0.03
[14]
  encoding yield: 0.06
[15]
  encoding yield: 0.03
[16]
  encoding yield: 0.02
[17]
  encoding yield: 0.04
[18]
  encoding yield: 0.04
[19]
  encoding yield: 0.02
[20]
  encoding yield: 0.02
[21]
  encoding yield: 0.03
[22]
  encoding yield: 0.03
[23]
  encoding yield: 0.31
[24]
  encoding yield: 0.05
[25]
  encoding yield: 0.03
[26]
  encoding yield: 0.04
[27]
  encoding yield: 0.08
[28]
  encoding yield: 0.03
[29]
  encoding yield: 0.01
[30]
  encoding yield: 0.02
[31]
  encoding yield: 0.11
[32]
  encoding yield: 0.05
[33]
  encoding yield: 0.01
[34]
  encoding yield: 0.02
[35]
  encoding yield: 0.28
[36]
  encoding yield: 0.02
[37]
  encoding yield: 0.18
[38]
  encoding yield: 0.02
[39]
  encoding yield: 0.04
[40]
  encoding yield: 0.21
[41]
  encoding yield: 0.07
[42]
  encoding yield: 0.03
[43]
  encoding yield: 0.05
[44]
  encoding yield: 0.04
[45]
  encoding yield: 0.03
[46]
  encoding yield: 0.13
[47]
  encoding yield: 0.13
[48]
  encoding yield: 0.22
[49]
  encoding yield: 0.05
[50]
  encoding yield: 0.06
